Holding throughout (assay): peptide SPOT array, c-Myc-tagged receptor at 1 uM or 100 nM, anti-c-Myc-Cy3
One assay has as its target T1, Bfl-1, Q16548.
T1 chain: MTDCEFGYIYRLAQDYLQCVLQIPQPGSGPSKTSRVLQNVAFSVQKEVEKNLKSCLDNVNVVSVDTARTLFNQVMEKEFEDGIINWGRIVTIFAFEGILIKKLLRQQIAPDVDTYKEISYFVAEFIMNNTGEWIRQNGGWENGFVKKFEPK

The next assay deals with T2, Mcl-1, Q07820.
T2 chain: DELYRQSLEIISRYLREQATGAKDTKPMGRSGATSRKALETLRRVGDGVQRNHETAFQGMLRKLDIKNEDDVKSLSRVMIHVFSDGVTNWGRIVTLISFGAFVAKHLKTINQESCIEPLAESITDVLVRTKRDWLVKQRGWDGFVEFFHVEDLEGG

The target of the next assay is Bcl-2, P10415.
Bcl-2, P10415, sequence (P10415 1-217): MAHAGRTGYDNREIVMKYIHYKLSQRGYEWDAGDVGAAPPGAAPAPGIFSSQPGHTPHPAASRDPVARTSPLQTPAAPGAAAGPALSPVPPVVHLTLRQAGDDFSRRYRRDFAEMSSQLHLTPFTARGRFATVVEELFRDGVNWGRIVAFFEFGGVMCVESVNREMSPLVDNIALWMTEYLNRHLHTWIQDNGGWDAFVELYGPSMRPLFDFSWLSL
The target in the next assay is T3, Bcl-w, Q92843.
T3 chain: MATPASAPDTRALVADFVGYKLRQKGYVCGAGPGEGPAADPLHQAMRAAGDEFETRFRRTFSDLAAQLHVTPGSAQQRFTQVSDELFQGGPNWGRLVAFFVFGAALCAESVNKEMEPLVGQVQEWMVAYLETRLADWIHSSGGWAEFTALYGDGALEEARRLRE

In a further assay the target is Bcl-xL, Q07817.
Bcl-xL, Q07817, sequence (Q07817 1-209): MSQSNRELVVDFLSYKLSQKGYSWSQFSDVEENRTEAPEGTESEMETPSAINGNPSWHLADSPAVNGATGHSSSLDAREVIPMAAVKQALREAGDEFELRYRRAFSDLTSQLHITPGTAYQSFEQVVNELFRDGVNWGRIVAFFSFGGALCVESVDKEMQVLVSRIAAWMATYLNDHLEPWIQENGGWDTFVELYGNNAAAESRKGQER

In the case of FQQTISCPEGLRLVGSEVGDRTLPGW [IRF3], the SPOT signal as a fraction of Bim BH3's signal on the same receptor and array in the assay with Bfl-1, Q16548 was 0.02; in the assay with Mcl-1, Q07820 it was 0.02; in the assay with Bcl-2, P10415 it was 0.01; with Bcl-w, Q92843, 0.02; with Bcl-xL, Q07817, 0.03.
As to RAIPIKQGILLKRSGKSLNKEWKKKY [AGAP3], the SPOT signal as a fraction of Bim BH3's signal on the same receptor and array came to 0.52 in the assay with Bfl-1, Q16548; 0.35 with Mcl-1, Q07820; 0.19 in the assay with Bcl-2, P10415; 0.64 with Bcl-w, Q92843; 1.42 in the assay with Bcl-xL, Q07817.
In the same order, the values of AIKPVSFIRDLKKIARHFRFGNQEDA [USP36] are 0.65, 0.39, 0.19, 0.75 and 0.61.
In the same order, the values of FSSDAVTSRVLLNVGQEVIAVVEENK [MOV10L1] are 0.02, 0.02, 0.01, 0.02 and 0.03.
The matching figures for RIEERKAIIGLYNYAHEMTHGASDRE [NCKAP1]: 0.03, 0.03, 0.02, 0.03 and 0.04.
Regarding KRALIQCAKDIAKASDEVTRLAKEVA [VCL], the SPOT signal as a fraction of Bim BH3's signal on the same receptor and array was 0.08 with Bfl-1, Q16548; 0.03 with Mcl-1, Q07820; 0.03 in the assay with Bcl-2, P10415; 0.15 in the assay with Bcl-w, Q92843; 0.12 in the assay with Bcl-xL, Q07817.
For the molecule TSQTEGLSRLLRQHAEDLNSGPLSKL [FES], the SPOT signal as a fraction of Bim BH3's signal on the same receptor and array worked out at 0.05 in the assay with Bfl-1, Q16548; 0.02 in the assay with Mcl-1, Q07820; 0.01 in the assay with Bcl-2, P10415; 0.09 with Bcl-w, Q92843; 0.05 in the assay with Bcl-xL, Q07817.
For the molecule FEKLRMIAKEIRHVGRMASVNMDPAL [RAPGEF2], the SPOT signal as a fraction of Bim BH3's signal on the same receptor and array with Bfl-1, Q16548 was 0.38; with Mcl-1, Q07820 it was 0.13; with Bcl-2, P10415 it was 0.1; in the assay with Bcl-w, Q92843, 0.18; with Bcl-xL, Q07817, 0.19.
In the same order, the values of CLKRCRSAQVLHLYGATYSADGEDRA [NLRP12] are 0.11, 0.06, 0.05, 0.07 and 0.19.
The matching figures for PVGYLVESGRLSVMGCDVLKAVSDYF [MFI2]: 0.04, 0.03, 0.01, 0.02 and 0.04.
With EERAQNVTRLLRKQAEEVNTEWEKLN [DMD], the SPOT signal as a fraction of Bim BH3's signal on the same receptor and array with Bfl-1, Q16548 amounted to 0.04; with Mcl-1, Q07820 it was 0.02; with Bcl-2, P10415, 0.01; in the assay with Bcl-w, Q92843, 0.04; with Bcl-xL, Q07817, 0.04.
On to DTIYQGFAECLIRLGDSMGRGGELET [NRN1L], for which the SPOT signal as a fraction of Bim BH3's signal on the same receptor and array with Bfl-1, Q16548 came to 0.02; with Mcl-1, Q07820, 0.17; with Bcl-2, P10415, 0.01; with Bcl-w, Q92843 it was 0.03; in the assay with Bcl-xL, Q07817, 0.035.
The matching figures for FVGCEFLHHLLREWGEELQAVLRSSQ [GEMIN4]: 0.02, 0.04, 0.01, 0.02 and 0.04.
In the same order, the values of LGDGPKLVRELFRVAEEHAPSIVFID [PSMC1] are 0.03, 0.04, 0.01, 0.02 and 0.04.
The matching figures for AEHEDDLPENLSEIADLWNSPTRTHG [CDH23]: 0.01, 0.02, 0.01, 0.02 and 0.02.
FYRRRDISNTLIMLADKHAKEIEEES [MTA3]: the SPOT signal as a fraction of Bim BH3's signal on the same receptor and array was 0.08 in the assay with Bfl-1, Q16548; 0.07 in the assay with Mcl-1, Q07820; 0.03 with Bcl-2, P10415; 0.09 with Bcl-w, Q92843; 0.15 with Bcl-xL, Q07817.
Turning to EVKQSMSSQSLDKAAEDMPEAEQDLE [APBA1], the SPOT signal as a fraction of Bim BH3's signal on the same receptor and array in the assay with Bfl-1, Q16548 is 0.02; with Mcl-1, Q07820, 0.02; with Bcl-2, P10415, 0.01; with Bcl-w, Q92843 it was 0.02; with Bcl-xL, Q07817 it was 0.02.
Turning to TIRNGHDSELLRSLAEELPLEQGFTI [PLCD4], the SPOT signal as a fraction of Bim BH3's signal on the same receptor and array with Bfl-1, Q16548 amounted to 0.02; in the assay with Mcl-1, Q07820, 0.02; with Bcl-2, P10415, 0.01; with Bcl-w, Q92843, 0.01; with Bcl-xL, Q07817, 0.02.
On to GFANHDVVEVLRNAGQVVHLTLVRRK [INADL], for which the SPOT signal as a fraction of Bim BH3's signal on the same receptor and array was 0.38 in the assay with Bfl-1, Q16548; 0.34 in the assay with Mcl-1, Q07820; 0.12 in the assay with Bcl-2, P10415; 0.31 with Bcl-w, Q92843; 0.33 with Bcl-xL, Q07817.

The record behind these values is publication PMC4072508, “Genome-Wide Prediction and Validation of Peptides That Bind Human Prosurvival Bcl-2 Proteins” (PLoS Computational Biology, 2014).
